This is an account of results in the DeepSol protein solubility set.

The data set is described as follows: soluble on expression in E. coli; label from the status in PepcDB or PDB records.
As to “MSLKILLKQAMVYPITSQKFQGDVLVIGEKIAEVKPFIQPTQDMTVIDARALHLLPGFIDVHTHLGLYDEGTGWAGNDANETSEVSTPHIRSLDGIHPLDIAFQDAVQNGITTVHVMPGSQNIIGGTTCVIKTAGTCIDHMIIQEPAGLKIAFGENPKKVHSNGTKESITRMGIMGLLRESFYEAQHYGHEADFRMLPILKALRREIPVRIHAHRADDISSALRFATEFNLDLRIEHCTEGHFIVEELSKHNLKVSVGPTLTRRSKIELKNKTWDTYHILSKSGVEVSITTDHPYTPIQYLNLCAAVAVREGLDEKTALEGITIFPARNLRLEDRIGSIEVGKDADLVLWTHHPFHYLAKPVLTMIDGKIIYKKNKKNEGHHHHHH”, the “soluble on expression in E. coli” value is given as “not soluble”.
With “YPNVEVFGEVPIQVVNAEPLGMHSNVMEAMFTAITRAKKNVYIETPYFIPTECLLQAIQTASMSGIDVRLVMPKRSDNDFVQYASNSYVEKLLRNKVRVYQYVNGFTHSKLMIVDDELVVVGSANMDIRSLELLFETNLFIYDKKVAQTVRDIYHTDMNNSKELNLRDWLQR” the entry was “not soluble”.
In the case of “MKRKHLSGKSIGIVFGTFAPMHVGHVDLITKEKRANDNVLVIVSGSNTQKDRGTRTGLSLNRRFRNVREIFYDDELIVVDKLDEADMPPYPEGWVPWVNRVKDLITKNTDGPEKITFYVGESEYVIELNRYYPQAQVELIECSVINISATEIRDNPIENWRFITKPFRRHFTRKVLVVGSASGGKTTLVKDLARTYNAPCSLEYAREYQEKYNVRDDELDTNDYIHLLTDQYAQTAEIIDNGQHSWLIFADTNSTVTKVYIDYYLKENISQEEFDLLDRLYQVTQAREKWDLIFVILPKSNYVDDGSRDMTMADNRTRDWFTKHLLDLLSPFKDKIVILVENCDSDSFFADNYHYAKKTIKERLHIEI” it was “not soluble”; in that of “MNNVSEERVAEMIWDAVSEGATLKDVHGIPQDMMDGLYAHAYEFYNQGRLDEAETFFRFLCIYDFYNPDYTMGLAAVCQLKKQFQKACDLYAVAFTLLKNDYRPVFFTGQCQLLMRKAAKARQCFELVNERTEDESLRAKALVYLEALKTAETEQHSEQEKELEHHHHHH”, “soluble”.
With “MGSSHHHHHHSSGLVPRGSHMTVYTASVTAPVNIATLKYWGKRDTKLNLPTNSSISVTLSQDDLRTLTSAATAPEFERDTLWLNGEPHSIDNERTQNCLRDLRQLRKEMESKDASLPTLSQWKLHIVSENNFPTAAGLASSAAGFAALVSAIAKLYQLPQSTSEISRIARKGSGSACRSLFGGYVAWEMGKAEDGHDSMAVQIADSSDWPQMKACVLVVSDIKKDVSSTQGMQLTVATSELFKERIEHVVPKRFEVMRKAIVEKDFATFAKETMMDSNSFHATCLDSFPPIFYMNDTSKRIISWCHTINQFYGETIVAYTFDAGPNAVLYYLAENESKLFAFIYKLFGSVPGWDKKFTTEQLEAFNHQFESSNFTARELDLELQKDVARVILTQVGSGPQETNESLIDAKTGLPKE” the entry was “soluble”; with “MLIPGAHYRGDVPMYPASVVKLFYLVACHEWLHSGMLQPDAELERAMRDMIVDSSNDATSLVVDMLTGTTSGPVLPPEPFRTWQYQRNIVNRYFQSLGWPELTQINVNQKTWCEGPYGREQEFVGRDRQNANRLTTNATAKLIHSIVGGVAVSASASQGMMELMERSLDPELLAQDPENQVQGFLGEGLPPGAKLWSKAGLTSWVRHDAAYIELPDRCPYTLVVFMENSTASKNTEVLPFISRQIASGILEHHHHHH”, “not soluble”; with “MRLEIPNHTERFGVVRLHEVQRILELDSGRVRDESPAVGLRRLDDADLRDVLEQTAIVVPTRNERLKLLEGVLSGIPHEALILVASNSSPDRFQMERDLLEEFAHLTERPALIFHQKDPALAEALRAGGYPHPIGEDGLVRSGKAEGMILALVFAALSGRRYVGFIDADNYFPGAVWEYVRAYAAGFLMAKTPFAMVRILWRYKPKLTEDEGVVFRRYGRVSERNNRALNQLIGGVSGFETDVVKTANAGEHAMSLGLALRLPLASGYAVEPQELVSLLELYGGVFPLEDEEVLQHGVEIFQIETRNPALHENKGDEHIRDMLLACLATVYHSKLATEEVRQSVLEELQAAGALAPGEEPPPPVLYPPLSSLDLQAVRKALRGHFSRFRVP”, “soluble”.
As to “MGSDKIHHHHHHMRADIIKVNHLLEIEMENNIGKEYLPSRLEEISDEHWHISMPMRKGMYITMRVGQKIRIVLRYRNTMFAATTVIAARRRGHIPVLIVSKPKDLIAINQKRTYVRISVAIPVAFRLLLADGEKGELLQGVTGDISAGGMLLLSPQDMEKDQKIEVEIKLPDSDSIFCQAHVVRVLGKASEEGSNNKYAIEYDDINEGQRDRIFRFIFDKQREWLRKGVTE”, the “soluble on expression in E. coli” value was “not soluble”.
In the case of “VAFTEKQDALVSSSFEAFKANIPQYSVVFYTSILEKAPAAKDLFSFLANGVDPTNPKLTGHAEKLFALVRDSAGQLKASGTVVADAALGSVHAQKAVTDPQFVVVKEALLKTIKAAVGDKWSDELSRAWEVAYDELAAAIKKA” it was “soluble”; in that of “LQQQEEETYADACDEFLDPIMSTLMCDPVVLPSSRVTVDRSTIARHLLSDQTDPFNRSPLTMDQIRPNTELKEKIQRWLAERKQQ”, “soluble”.
In the case of “AHHHHHHGSEAWRGRSQAVVDNLAPRVVDMLVPEGFKPTQEEQLSSYDVEKKELATVYMITLVSGSGEKEEEVEEETPTQTETQTPTETRTETKTPTETTTTTPTETKETPTQTTTTQPARTETQGGICGPGLIVLLAALGVLRRRS” it was “not soluble”; in that of “MGSDKIHHHHHHMKPNIITVILAAGASSRFHGAKMLAKVKGNQSLLARSIVSLNKVTATAGIKAPAVVLGAHLNDEIMAITATSHQIINPDWQQGLSSSVKHASQYAIEQQADALLLVLADQVAIDVDDYLHLIERYQQNGLTSCAFYRQDVGVPAIFLAKDFAVLMSIDGDKGAKSILKQHDKNNSLNIISMEQAQFDIDTPADLARWLDNKD”, “not soluble”.
As for “MKQPTLAVIMTCHNRRNTTLACLQALYQQKNHFDVYLTDDGSTDGTAEFIKAEYPDVKIFQGDGNLFWVGGMHLAFGEAIKNQYDYYLWLNDDTFLEADALEKLLQVHENLAVEGYGQSIVVGSTQDPITKQATYGGAVKSKKWYSNKFEFLEPTSDVQKCDAMYGNCVLIPHSVTLKVGNIDTAFIHSLGDLDYALRARNLGLEHHHHHH”, the “soluble on expression in E. coli” value is on record as “not soluble”.
With “MKNDVISPEFDENGRPLRRIRSFVRRQGRLTKGQEHALENYWPVMGVEFSEDMLDFPALFGREAPVTLEIGFGMGASLVAMAKDRPEQDFLGIEVHSPGVGACLASAHEEGLSNLRVMCHDAVEVLHKMIPDNSLRMVQLFFPDPWHKARHNKRRIVQVPFAELVKSKLQLGGVFHMATDWEPYAEHMLEVMSSIDGYKNLSESNDYVPRPASRPVTKFEQRGHRLGHGVWDLMFERVK” the entry was “soluble”; with “NGQIMYRIVTVQDSTERLESQSALRESEERFRSVVESAPDAIFIQTGGRFAYLNHSAIALFGASKAEEILGRRVADQIHPDYRDLVAERIRLLNERQ”, “not soluble”; with “MTTDLITVKQVTKTYGSKNKEIAALKDISLAIPKGTTLGIIGESGSGKTTLGKLIAGIESPTSGEIDYNGQVVHKLKAAHKRDFLQKVQFIFQDSTAALNPRWKVRDSVTEGYISFGLGDKGLKDKVAGDALERVGLDRRYINRYPHEFSGGQRQRIAIARALLCEPEVLILDEPISALDVSLQIQIVHLLQKIQREQGYTYLFIAHDLPMVHYLCEKVAVLYKGELVEFGNTDEVFRNPQHSYTKTLLASTPKISG”, “not soluble”.
In the case of “MSLDREGLNTHLKSGATTVCRAWEVRRTDGVTLGFTDHDRDLSFDGMTFRAGTGLSARSLMQSTGLAVDNSEALGALSSDAVREADIESGRYDGAEVRAWLVNWADTTERALQFRGSLGEIRRAGGAFEAELRGLTEALNQPLGRVFQKPCSAVLGDAACKFDLSTAGYAVEIDVETLRDGQLFAWASLDGFAPGWFTGGRLTVLGGAGAGLWAPIRSDSLNARREITLWQPIRADIQPGDLVRLSAGCDKRQSTCRLKFDNLVNYQGFPDIPGEDWMVAVPKRTGQNTGGSRREGHHHHHH” it was “soluble”; in that of “NKDFEWSTTGTFSLNSNKLISLSGSIFKSDYDYFNTGTVEYSGQVADSHRVQVGESIGNFYGFKVVDVDSEGRWIYEDRNGELVNYKDFTHAPEDKHVIGNGLPKWYAGWNNTLRYKNFDLNVTMRGAFGFQIINGGRMNYENVKNSRFENRLKSVNDLVFGKHTLSPEVEPEFNSYYVEDGDYWKIDNITLGYSFGQVGKYIKSLRIYGSVLNALTITGYKGIDPEVSTDGLTPGYDTRDRYPSVRSFTFGVNVKF”, “not soluble”; in that of “MLFSMESILSSTKPKLEPPPKLEPEVTINEQVVDLPRSNTRLSEPSTSASVLEHDLKFGESRKRSRSLGDEPTEDEDGVPVRKANKRNHSTSSAADSSSDDAKDDDDDDDSTSRKSMSGHRKSSHAKPPYSYIALIAMSILNSPEKKLTLSEICEFIINKFEYYKEKFPAWQNSIRHNLSLNDCFVKVARGPGNPGKGNYWALDPNCEDMFDNGSFLRRRKRYKKNSDTYHEMMSHHPMPFPPFLPQGMPFPPRMMHPMANIPMLGHPMNPRAVPNMPAFFIPQNIDSQKLLSMMASRIMPMDAPVSSGQKRTSSSSSPNENGSSAVSDKLSA”, “soluble”.
Regarding “GAVETLQGKAATGELLEKSVNTIRFLAIDAVEKANSGHPGLPMGCAPMGHVLYDEVMRYNPKNPYWFNRDRFVLSAGHGCMLQYALLHLAGYDSVKEEDLKQFRQWGSRTPGHPENFETPGVEVTTGPLGQGIANAVGLALAEKHLAARFNKPDSEIVDHYTYVILGDGCQMEGIANEACSLAGHWGLGKLIAFYDDNHISIDGDTEIAFTEDVSTRFEALGWHTIWVKNGNTGYDDIRAAIKEAKAVTDKPTLIKVTTTIGFGSPNKANSYSVHGSALGAKEVEATRQNLGWPYDTFFVPEDVKSHWSRHTPEGAALEADWNAKFAEYEKKYADDAATLKSIITGELPTGWVDALPKYTPESPGDATRNLSQQCLNALANVVPGLIGGSADLASSNMTLLKMFGDFQKDTAEERNVRFGVREHGMGAICNGIALHSPGFVPYCATFFVFTDYMRGAMRISALSEAGVIYVMTHDSIGLGEDGPTHQPIEHLVSFRAMPNILMLRPADGNETAGAYKVAVLNRKRPSILALSRQKLPHLPGTSIEGVEKGGYTISDNSTGNKPDLIVMGTGSELEIAAKAADELRKEGKTVRVVSFVSWELFDEQSDEYKESVLPAAVTARISIEAGSTLGWQKYVGAQGKAIGIDKFGASAPAGTIYKEYGITVESIIAAAKSF”, the “soluble on expression in E. coli” value is “soluble”.
For “GPGSMERLLPSMQQRFAELAHTGVGESSLTVEALFQRYQRVLKVGEGTFGEVFVLYDTVAHTYITMKRMHTLLSLRRRSLGIHRCTFREVELLAALQHPNIVQVLDYHILSDGSLVMLMPVIAHDLTSLLRRWPSTPQSSDHGTASTAASTRPRMPLHVVKCIFRQIIAGVAYLHKHKVVHRDLKPSNVMVDHTGVVKLIDFGWSRFCAAAGAMTGPPCVTAFRPPEVLMGAHNHYTFSLDIWCCGCILFEMLTGGTPFAKSRNEAECLANIVDWLGSPPSSSEVYYRRAARCPFPLAPGRPDTFAQRCSNYGIKSAEAMFLRRMLCLEPGERATAEALLRDPWFTTAPTMCVPRAVPLPAHNMFRLVEVKRKELEH”, the “soluble on expression in E. coli” value is on record as “not soluble”.
With “MTMRFSVLASGSTGNAFYIETDRQRLLVDAGLSGKQLEELFAEIGRHPKQLDALLVTHEHSDHIKGLGVLARKYRLPVYANEKTWRAMEQAVGDIPPEQKFVFPLGAVRTFGDVDVESFGVSHDAAEPMFYVFHYEGKKLALLTDTGYVSERIKKTIENADVFVFESNHDVGMLRMGRYPWSVKRRILSDVGHISNEEAGLALADVIGDRTKQIYLAHLSQDNNMKELARMTVTQVLEQKGLAVGARFRLYDTDPRRATALAYV” the entry was “not soluble”.
